Reference: patent US20240084003A1 (SIMCERE ZAIMING PHARMACEUTICAL, published 2024)

T1: human CD22-ECD-His protein (human, UniProt P20273 20-687)
T1 construct: Made in house in HEK293E; also called hCD22-ECD-His; recombinant human CD22-ECD His protein; not shown: His tag
T1 sequence: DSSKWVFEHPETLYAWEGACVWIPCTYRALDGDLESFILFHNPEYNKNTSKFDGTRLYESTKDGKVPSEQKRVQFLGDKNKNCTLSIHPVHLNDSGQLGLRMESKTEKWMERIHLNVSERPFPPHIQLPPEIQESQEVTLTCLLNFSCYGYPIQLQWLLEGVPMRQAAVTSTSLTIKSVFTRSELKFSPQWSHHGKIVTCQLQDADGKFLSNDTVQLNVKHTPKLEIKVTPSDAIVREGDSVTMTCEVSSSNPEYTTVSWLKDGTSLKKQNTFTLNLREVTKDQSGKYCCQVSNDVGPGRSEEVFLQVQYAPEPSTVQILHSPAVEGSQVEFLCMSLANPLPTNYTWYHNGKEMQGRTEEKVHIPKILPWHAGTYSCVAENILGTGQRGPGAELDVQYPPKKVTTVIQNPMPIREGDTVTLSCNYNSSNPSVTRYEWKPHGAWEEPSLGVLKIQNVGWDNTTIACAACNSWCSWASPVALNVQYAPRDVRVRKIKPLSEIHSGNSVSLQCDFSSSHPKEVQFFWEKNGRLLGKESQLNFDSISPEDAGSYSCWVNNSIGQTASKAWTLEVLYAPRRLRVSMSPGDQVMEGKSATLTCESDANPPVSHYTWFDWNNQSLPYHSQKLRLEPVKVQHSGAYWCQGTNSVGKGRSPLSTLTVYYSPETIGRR

T2: murine CD22 protein (ACROBiosystems, SI2-M52Ha) (murine, UniProt P35329 22-708)
T2 construct: extracellular domain; also called murine CD22-ECD; murine CD22-ECD-His
T2 sequence (looked up): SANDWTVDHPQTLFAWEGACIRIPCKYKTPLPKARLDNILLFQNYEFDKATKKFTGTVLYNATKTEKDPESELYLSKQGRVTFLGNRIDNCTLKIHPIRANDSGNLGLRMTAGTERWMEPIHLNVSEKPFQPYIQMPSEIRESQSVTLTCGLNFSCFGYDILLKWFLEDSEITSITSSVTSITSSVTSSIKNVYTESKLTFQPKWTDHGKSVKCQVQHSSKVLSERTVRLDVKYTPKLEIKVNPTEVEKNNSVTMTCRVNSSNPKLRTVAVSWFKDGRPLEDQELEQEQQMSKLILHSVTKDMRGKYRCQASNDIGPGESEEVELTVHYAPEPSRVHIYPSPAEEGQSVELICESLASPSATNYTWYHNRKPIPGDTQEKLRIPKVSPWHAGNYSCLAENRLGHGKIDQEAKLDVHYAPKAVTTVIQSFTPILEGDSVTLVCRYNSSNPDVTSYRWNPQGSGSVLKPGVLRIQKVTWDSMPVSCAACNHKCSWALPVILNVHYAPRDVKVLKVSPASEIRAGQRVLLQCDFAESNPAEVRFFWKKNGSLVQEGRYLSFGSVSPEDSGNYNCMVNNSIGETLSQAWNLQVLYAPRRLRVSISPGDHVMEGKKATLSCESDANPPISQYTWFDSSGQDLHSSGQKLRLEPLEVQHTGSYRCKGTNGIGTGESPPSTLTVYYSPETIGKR

T3: human CD22 domain1-4-His (human, UniProt P20273 20-425)
T3 construct: also called hCD22 domain1-4-His; not shown: His tag
T3 sequence: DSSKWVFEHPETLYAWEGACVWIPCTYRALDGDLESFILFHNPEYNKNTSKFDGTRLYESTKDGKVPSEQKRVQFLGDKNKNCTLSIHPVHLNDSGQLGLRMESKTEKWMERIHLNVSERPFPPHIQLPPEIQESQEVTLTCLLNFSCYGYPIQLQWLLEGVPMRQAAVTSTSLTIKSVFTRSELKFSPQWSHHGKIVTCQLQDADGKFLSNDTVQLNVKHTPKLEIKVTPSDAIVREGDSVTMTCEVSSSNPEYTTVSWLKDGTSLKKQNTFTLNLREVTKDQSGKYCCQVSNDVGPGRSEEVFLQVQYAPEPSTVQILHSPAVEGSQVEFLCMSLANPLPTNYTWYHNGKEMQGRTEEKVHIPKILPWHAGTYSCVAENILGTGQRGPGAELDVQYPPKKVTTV

T4: human CD22 domain5-7-His (human, UniProt P20273 414-687)
T4 construct: also called hCD22 domain5-7-His; not shown: His tag
T4 sequence: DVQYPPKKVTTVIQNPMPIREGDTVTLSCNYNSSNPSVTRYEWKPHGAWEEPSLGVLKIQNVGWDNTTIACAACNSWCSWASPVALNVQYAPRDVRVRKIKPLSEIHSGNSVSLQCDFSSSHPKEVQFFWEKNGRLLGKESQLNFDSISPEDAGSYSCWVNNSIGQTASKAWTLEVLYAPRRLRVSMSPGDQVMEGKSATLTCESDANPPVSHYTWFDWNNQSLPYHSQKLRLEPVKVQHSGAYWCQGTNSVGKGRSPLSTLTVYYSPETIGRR


How the values were obtained:
[1] = molecular target: T1, human CD22-ECD-His protein; experiment: ELISA, Ab 0.01 nM
Protocol: (§1) In order to detect the binding activity of CD22 human-murine chimeric antibodies to CD22 protein, the purified human CD22-ECD-His protein obtained in Example 2 was diluted with PBS to a final concentration of 2 μg/mL, and then added to 96-well ELISA plate at 100 μl/well. The plate was sealed with plastic film and incubated overnight at 4° C., the plate was washed 2 times with PBS the next day, and then a blocking solution [PBS+2% (w/w) BSA] was added for blocking at room temperature for 2 hours. […] After incubation at 37° C. for 2 hours, the plate was washed 3 times with PBS. HRP (horseradish peroxidase)-labeled secondary antibody (purchased from Sigma, catalog number: A0170) was added, and incubated at 37° C. for 2 hours, and the plate was washed 5 times with PBS. TMB substrate was added at 50 μl/well, and incubated at room temperature for 30 minutes, then a stop solution (1.0 N HCl) was added at 50 μl/well.

[2] = molecular target: T1, human CD22-ECD-His protein; experiment: ELISA, Ab 0.10 nM
Protocol: as §1

[3] = molecular target: T1, human CD22-ECD-His protein; experiment: ELISA, Ab 0.001 nM
Protocol: as §1

[4] = molecular target: T1, human CD22-ECD-His protein; experiment: ELISA, Ab 10.00 nM
Protocol: as §1

[5] = molecular target: T1, human CD22-ECD-His protein; experiment: ELISA, Ab 0.0001 nM
Protocol: as §1

[6] = molecular target: T1, human CD22-ECD-His protein; experiment: ELISA, Ab 100.00 nM
Protocol: as §1

[7] = molecular target: T1, human CD22-ECD-His protein; experiment: ELISA, Ab 0.00001 nM
Protocol: as §1

[8] = molecular target: T1, human CD22-ECD-His protein; experiment: ELISA, human CD22-ECD-His coated
Protocol: as §1

[9] = molecular target: T2, murine CD22 protein (ACROBiosystems, …); experiment: ELISA, murine CD22-ECD-His coated
Protocol: as §1
In order to detect the species cross-binding activity of the chimeric antibodies, an ELISA plate was coated with commercial murine CD22 protein (ACROBiosystems, catalog number: SI2-M52Ha) and monkey CD22 protein (ACROBiosystems, catalog number: SI2-R52Ha), respectively, and the ELISA detection was performed according to the method in Example 5.1.

human CD22 domain1-4-His = molecular target: T3, human CD22 domain1-4-His; experiment: ELISA, human CD22 domain1-4-His coated
human CD22 domain5-7-His = molecular target: T4, human CD22 domain5-7-His; experiment: ELISA, human CD22 domain5-7-His coated

Binder	OD450 [1] [OD450]	OD450 [2] [OD450]	OD450 [3] [OD450]	OD450 [4] [OD450]	OD450 [5] [OD450]	OD450 [6] [OD450]	OD450 [7] [OD450]	EC50 (read off the curve) [8] [pM]	binding result [9]	EC50 (read off the curve) (human CD22 domain1-4-His) [pM]	binding result (human CD22 domain5-7-His)	binding result (human CD22 domain1-4-His)	EC50 (read off the curve) (human CD22 domain5-7-His) [pM]
F2.99.1 (antibody, human IgG1, lambda, V domains shown, Human-murine chimeric IgG1, lambda) VH: QVTLKESGPGILQPSQTLSLTCSFSGFSLSTFPMGVGWIRQPSGKGLEWLAHIWWDDDEYYNPVLKSRLTISKDTSKKQVYLRIANVDTVDTATYYCTRANWDRWYFDVWGTGTTVTVSS VL: QLVLTQSSSASFSLGASAKLTCTLSRQHSAYTIEWYQQQPLKPPKYVMEVKKDGSHSTGDGIPDRFSGSSSGADRYLSISNIQPEDEAIYICGVGDTIKEHFVFGGGTKVTVLG	1.45	2.1	0.51	2.06	0.27	2.1	0.08	~40	no binding (tested: 100 nM)	~50	no binding (tested: 100 nM)		
F2.42.9 (antibody, human IgG1, lambda, V domains shown, Human-murine chimeric IgG1, lambda) VH: QVTLKESGPGILQPSQTLSLTCSFSGFSLSTFDRGVGWIRQPSGKGLEWLAHIWWNDKKFYNPVLKSRLTISKDTSKNQVFLTIANVDSADTATYSCARIVWDKYYFDYWGQGIPLTVSS VL: QLVLTQSSSASFSLGASAKLTCTLSSQHSAYTIEWYQQQPLKPPKFVMDLKKDGSHSTGDGIPARFSGSSSGADRYLTISNIQPEDEAIYICGVGDTIKEQYVFGGGTKVTVLG	1.95	2.58	0.68	2.68	0.19	3.14	0.09	~40	no binding (tested: 100 nM)	~40	no binding (tested: 100 nM)		
F1.192.1 (antibody, human IgG1, kappa, V domains shown, Human-murine chimeric IgG1, kappa) VH: AVQLQQSGVELVRPGASVKLSCTGSDFNIKEDYIHWVKQRPEQGLEWIGWIDPENGDTEYASKFQGKATITADTSSNTAYLQLSSLTSEDTAVYYCATYGSLDYWGQGTTLTVSS VL: DIKMTQSPSSMYAFLGERVTITCKASQGINSFLTWFQQKPGKSPKTLIYRANRLVDGVPSRFSGSGSGQDYSLTISSLEYEDVGIYYCLQYDEFPRTFGGGTKLEIKR	1.79	2.52	0.46	2.57	0.1	2.71	0.06	~50	no binding (tested: 100 nM)			no binding (tested: 100 nM)	~100

Next, values leading:

OD450 [1] [OD450]	OD450 [2] [OD450]	OD450 [3] [OD450]	OD450 [4] [OD450]	OD450 [5] [OD450]	OD450 [6] [OD450]	OD450 [7] [OD450]	EC50 (read off the curve) [8] [pM]	binding result [9]	EC50 (read off the curve) (human CD22 domain1-4-His) [pM]	binding result (human CD22 domain5-7-His)	binding result (human CD22 domain1-4-His)	EC50 (read off the curve) (human CD22 domain5-7-His) [pM]	Binder
1.34	1.91	0.5	1.98	0.26	1.92	0.21	~50	no binding (tested: 100 nM)	~100	no binding (tested: 100 nM)			F2.127.11 (antibody, human IgG1, lambda, V domains shown, Human-murine chimeric IgG1, lambda) VH: QVTLKESGPGILQPSQTLSLTCSFSGFSLSTFGMGVGWIRQPSGKGLEWLAHIWWDDDKHYNPALKSRLTISKDTSRNQVFLKIANVDTADGATYFCARDNWVSSLDYWGQGTSVIVSS VL: QPVITQSSSASFSLGASAELTCTLSSQHSTYTIEWYQQQPLKPPKYVMGLKKDGSHSTGDGIPDRFSGSSSGADRYLSISNIQPEDEAIYICGVSDTIKEQFVYVFGGGTKVTVLG
2.1	2.55	0.64	2.6	0.2	3.28	0.1	~40	no binding (tested: 100 nM)			no binding (tested: 100 nM)	~50	F2.151.13 (antibody, human IgG1, lambda, V domains shown, Human-murine chimeric IgG1, lambda) VH: QVHLQQPGTELMKPGASVKLSCKATGYTFRDYWLEWVKQRPGHGLEWIGEILPGSGNAYYNEKFKGKATFTADTSSNTAYMQLSSLTTEDSAIYYCARVYSNWYFDAWGKGTTVTVSS VL: QAVVTQESALTTSPGETVTLTCRSSTGAVTTSNYANWVQEKPDHLFTGLIGGTNNQAPGVPARFSGSLIGDKAALTISGAQTEDEAIYFCALWFSNHWVFGGGTKLTVLG
